Assay results from publication PMC11312917.
Blank lines part the entries; values can stand above or below the substance they belong to.

Assays:
Abl1 SH2 domain = Abl1 SH2 domain (UniProt P00519); test: GST-domain microarray probed with biotinylated peptide; conditions: reference: unphosphorylated peptide; sites Y251
Abl2 SH2 domain = Abl2 SH2 domain (UniProt P42684); test: as above; conditions: reference: unphosphorylated peptide; sites Y251
Fyn SH2 domain = Fyn SH2 domain (UniProt P06241); test: as above; conditions: reference: unphosphorylated peptide; sites Y251
Nck2 SH2 domain = Nck2 SH2 domain (UniProt O43639); test: as above; conditions: reference: unphosphorylated peptide; sites Y251
Yes SH2 domain = Yes SH2 domain (UniProt P07947); test: as above; conditions: reference: unphosphorylated peptide; sites Y251
[1] = biological target: isolated PDZ domain of Pdlim5 fused to a Golgi localization sequence (UniProt Q96HC4); test: Golgi co-relocalization assay (immunofluorescence, Pearson's correlation coefficient); conditions: HT-22 cells; co-expression of GLS-PDZ with isolated LIM 4xMut; parent: est. 0.84; read off a plot
Chain of UniProt Q96HC4 (Q96HC4 2-85): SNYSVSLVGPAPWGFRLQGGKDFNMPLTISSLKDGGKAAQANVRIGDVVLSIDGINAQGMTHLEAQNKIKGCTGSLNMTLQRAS

[2] = biological target: isolated LIM domain of Pdlim5 fused to a Golgi localization sequence; test: as above; conditions: HT-22 cells; co-expression of GLS-LIM with isolated PDZ 4xMut; parent: est. 0.88; read off a plot

binding against the reference (Abl1 SH2 domain): stronger | binding against the reference (Abl2 SH2 domain): stronger | binding against the reference (Fyn SH2 domain): stronger | binding against the reference (Nck2 SH2 domain): stronger | binding against the reference (Yes SH2 domain): stronger
Substance: Pdlim5 242-261 (from UniProt Q96HC4) pY251 peptide

other: Pearson corr. coef. (r) [1]: 0.05
Substance: isolated LIM domain of Pdlim5 (not fused to GLS) C541G; F543A; T562A; C570A

other: Pearson corr. coef. (r) [2]: 0.08
Substance: isolated PDZ domain of Pdlim5 (not fused to GLS) (from UniProt Q96HC4) P13G; R17A; K34G; K71A
